Assays:
[1] = target: human CD8 on CD8+ T cells of PBMC or whole blood (human) (UniProt P01732); experiment: cell affinity chromatography: Fab on Strep-Tactin Sephadex-50, human PBMC, flow cytometry of start and flow-through
[2] = target: human CD8 on CD8+ T cells of PBMC or whole blood (human) (UniProt P01732); experiment: Flow cytometry of PBMC fractions from a Sephadex G50/Strep-Tactin column loaded with the CD8 Fab; the same marker reads 28 before selection (diagram A)
[3] = target: human CD8 on CD8+ T cells of PBMC or whole blood (human) (UniProt P01732); experiment: Cell affinity chromatography on Strep-Tactin agarose functionalized with the anti-CD8 Fab, human PBMC; starting sample 24,1% CD8+ (a) [c]
[4] = target: human CD8 on CD8+ T cells of PBMC or whole blood (human) (UniProt P01732); experiment: Cell affinity chromatography on Strep-Tactin agarose functionalized with the anti-CD8 Fab, human PBMC; starting sample 24,1% CD8+ (a) [b]
[5] = target: human CD8 on CD8+ T cells of PBMC or whole blood (human) (UniProt P01732); experiment: cell affinity chromatography: PBMC pre-incubated with Fab, Superflow Strep-Tactin column, FACS of start and wash fractions
[6] = target: human CD8 on CD8+ T cells of PBMC or whole blood (human) (UniProt P01732); experiment: Cell affinity chromatography on Strep-Tactin agarose functionalized with the anti-CD8 Fab, human whole blood; starting sample 0,041% CD8+ (a) [c]
[7] = target: human CD8 on CD8+ T cells of PBMC or whole blood (human) (UniProt P01732); experiment: Cell affinity chromatography on Strep-Tactin agarose functionalized with the anti-CD8 Fab, human whole blood; starting sample 0,041% CD8+ (a) [b]
[8] = target: human CD4 on CD4+ cells of PBMC or whole blood (human) (UniProt P01730); experiment: Pipette tip cell affinity chromatography on Strep-Tactin agarose functionalized with the m13B8.2 Fab, human PBMC; starting sample 52,3% CD4+ (a) [c]
[9] = target: human CD4 on CD4+ cells of PBMC or whole blood (human) (UniProt P01730); experiment: Pipette tip cell affinity chromatography on Strep-Tactin agarose functionalized with the m13B8.2 Fab, human PBMC; starting sample 52,3% CD4+ (a) [b]
[10] = target: human CD4 on CD4+ cells of PBMC or whole blood (human) (UniProt P01730); experiment: Pipette tip cell affinity chromatography on Strep-Tactin agarose functionalized with the m13B8.2 Fab, human whole blood; starting sample 1,20% CD4+ (a) [b]
[11] = target: human CD4 on CD4+ cells of PBMC or whole blood (human) (UniProt P01730); experiment: Pipette tip cell affinity chromatography on Strep-Tactin agarose functionalized with the m13B8.2 Fab, human whole blood; starting sample 1,20% CD4+ (a) [c]
[12] = target: murine CD4 on splenocytes (murine) (UniProt P06332); experiment: Pipette tip cell affinity chromatography on Strep-Tactin agarose functionalized with the GK1.5 Fab, murine splenocytes; starting sample 21,7% CD4+ (a) [c]
Chain of UniProt P06332 (P06332 27-457): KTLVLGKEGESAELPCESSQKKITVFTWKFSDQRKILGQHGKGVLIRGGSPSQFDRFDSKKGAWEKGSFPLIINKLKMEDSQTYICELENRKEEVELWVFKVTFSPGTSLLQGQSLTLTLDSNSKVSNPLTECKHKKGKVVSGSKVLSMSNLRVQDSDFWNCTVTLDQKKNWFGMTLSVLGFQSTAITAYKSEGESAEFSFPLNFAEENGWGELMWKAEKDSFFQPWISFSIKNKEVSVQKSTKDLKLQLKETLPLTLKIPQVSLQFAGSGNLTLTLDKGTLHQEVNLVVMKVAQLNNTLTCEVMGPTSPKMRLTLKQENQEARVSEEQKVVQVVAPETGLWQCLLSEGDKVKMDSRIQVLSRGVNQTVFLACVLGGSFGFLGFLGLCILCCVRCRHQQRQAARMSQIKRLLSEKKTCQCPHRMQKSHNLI

[13] = target: murine CD4 on splenocytes (murine) (UniProt P06332); experiment: Pipette tip cell affinity chromatography on Strep-Tactin agarose functionalized with the GK1.5 Fab, murine splenocytes; starting sample 19,6% CD3+CD4+ (a) [b]
[14] = target: murine CD4 on splenocytes (murine) (UniProt P06332); experiment: Pipette tip cell affinity chromatography on Strep-Tactin agarose functionalized with the GK1.5 Fab, murine splenocytes; starting sample 19,6% CD3+CD4+ (a) [c]
[15] = target: murine CD4 on splenocytes (murine) (UniProt P06332); experiment: Pipette tip cell affinity chromatography on Strep-Tactin agarose functionalized with the GK1.5 Fab, murine splenocytes; starting sample 21,7% CD4+ (a) [b]

Chain of UniProt P01732 (P01732 22-235): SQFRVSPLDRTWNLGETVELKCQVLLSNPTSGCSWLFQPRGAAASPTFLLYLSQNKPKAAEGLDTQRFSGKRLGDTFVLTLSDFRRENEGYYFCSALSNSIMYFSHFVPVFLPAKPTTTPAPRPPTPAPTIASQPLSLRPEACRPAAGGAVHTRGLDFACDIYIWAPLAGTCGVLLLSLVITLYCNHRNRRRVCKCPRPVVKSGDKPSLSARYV

CD8 binding Fab fragment, heavy chain carboxy-terminally fused with a sequential arrangement of two streptavidin binding modules (IBA GmbH, catalogue number 6-8003)
percent of PBMC that are CD8+ T-cells bound to the column [1]: 12.1% | percent of the CD8+ T-cells bound to the column [1]: 66% | % cells in the CD8-positive marker of the CD8 histogram, 1. elution fraction immediately with D-Biotin [2]: 67% | % cells in the CD8-positive marker of the CD8 histogram, 2. elution fraction after D-Biotin and subsequent washing [2]: 76% | % cells in the CD8-positive marker of the CD8 histogram, wash through fraction [2]: 10% | % CD8+ cells in the biotin eluate fraction [3]: 88.2% | % CD8+ cells in the CD8-negative wash fraction [4]: 4.83% | percent of CD8+ cells retarded on the column [5]: 77.8% | % CD8+ cells in the biotin eluate fraction [6]: 79.8% | % CD8+ cells in the CD8-negative wash fraction [7]: 0.005%

mutant Fab fragment m13B8.2 (variable domains of the CD4 binding murine antibody 13B8.2 with light chain His91Ala and heavy chain Arg53Ala, human CH1 gamma1 and human kappa constant domains, two streptavidin binding modules at the C-terminus of the heavy chain)
% CD4+ cells in the biotin eluate fraction [8]: 99.4% | % CD4+ cells in the CD4-negative wash fraction [9]: 5.88% | % CD4+ cells in the CD4-negative wash fraction [10]: 0.144% | % CD4+ cells in the biotin eluate fraction [11]: 70.4%

anti-CD4 Fab fragment with the wild-type variable domains of the CD4 binding antibody GK1.5 and two streptavidin binding modules at the C-terminus of the heavy chain
% CD4+ cells in the biotin eluate fraction [12]: 84.7% | % CD3+CD4+ cells in the CD4-negative wash fraction [13]: 0.977% | % CD3+CD4+ cells in the biotin eluate fraction [14]: 80.8% | % CD4+ cells in the CD4-negative wash fraction [15]: 2.78%

Reference: patent publication US20150024411A1
